B1: Kv2.1 (wild-type voltage-dependent delayed-rectifier K+ channel, expressed in CHO cells) (protein)
chain: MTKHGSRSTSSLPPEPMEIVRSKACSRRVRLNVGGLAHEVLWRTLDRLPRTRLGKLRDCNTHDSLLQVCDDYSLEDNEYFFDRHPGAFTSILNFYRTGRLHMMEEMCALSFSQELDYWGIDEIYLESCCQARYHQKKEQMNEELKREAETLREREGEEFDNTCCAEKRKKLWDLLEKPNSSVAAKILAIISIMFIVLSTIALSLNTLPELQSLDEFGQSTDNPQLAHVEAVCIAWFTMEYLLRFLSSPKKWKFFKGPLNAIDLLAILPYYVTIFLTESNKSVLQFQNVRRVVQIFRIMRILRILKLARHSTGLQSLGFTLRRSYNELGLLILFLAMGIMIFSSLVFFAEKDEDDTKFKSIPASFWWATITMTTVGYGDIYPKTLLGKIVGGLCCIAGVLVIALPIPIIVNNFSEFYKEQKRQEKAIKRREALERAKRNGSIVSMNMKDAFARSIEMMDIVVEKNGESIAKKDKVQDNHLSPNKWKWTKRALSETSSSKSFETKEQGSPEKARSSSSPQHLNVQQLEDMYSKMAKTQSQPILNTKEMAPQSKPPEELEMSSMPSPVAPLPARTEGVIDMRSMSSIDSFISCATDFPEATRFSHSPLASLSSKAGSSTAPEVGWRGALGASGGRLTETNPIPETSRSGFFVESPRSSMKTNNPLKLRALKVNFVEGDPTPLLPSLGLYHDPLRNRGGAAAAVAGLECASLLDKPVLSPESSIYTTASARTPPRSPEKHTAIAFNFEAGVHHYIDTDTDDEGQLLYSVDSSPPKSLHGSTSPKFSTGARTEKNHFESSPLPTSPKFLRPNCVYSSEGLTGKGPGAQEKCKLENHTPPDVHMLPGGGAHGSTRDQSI

Tests used:
[1] = target: syntaxin (SNARE protein; expressed from a plasmid in CHO cells for co-immunoprecipitation); assay: co-immunoprecipitation with anti-syntaxin from CHO cells expressing syntaxin and Kv2.1 with C1a441-472 co-expressed as competitor; the ratio is Kv2.1 pulled down with syntaxin; mean±SEM, n=3
[2] = target: syntaxin (SNARE protein; expressed from a plasmid in CHO cells for co-immunoprecipitation); assay: co-immunoprecipitation with anti-syntaxin from CHO cells expressing syntaxin and Kv2.1, no C1a segment; mean±SEM, n=3

Sequence of syntaxin (SNARE protein; expressed from a plasmid in CHO cells for co-immunoprecipitation) (Q16623 whole entry): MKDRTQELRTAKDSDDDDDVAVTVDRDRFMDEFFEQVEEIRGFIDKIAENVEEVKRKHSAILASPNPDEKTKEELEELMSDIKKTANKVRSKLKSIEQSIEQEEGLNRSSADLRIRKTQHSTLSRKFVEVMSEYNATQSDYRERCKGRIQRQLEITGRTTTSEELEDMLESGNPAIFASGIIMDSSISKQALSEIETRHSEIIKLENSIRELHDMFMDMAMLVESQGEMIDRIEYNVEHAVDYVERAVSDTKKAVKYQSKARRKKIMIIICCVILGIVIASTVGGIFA

Binder | ratio of Kv2.1 to syntaxin immunoblots [1] | ratio of Kv2.1 to syntaxin immunoblots [2]
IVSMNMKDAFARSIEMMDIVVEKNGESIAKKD [C1a441-472 (overlapping middle segment of C1a)] | 0.25 | –
B1 | – | 0.24

From patent publication US20170174740A1
